Measurements as given in patent publication US20040175379A1.

Molecular target: biotinylated EpoR (Abbott CHO cell derived ref.#RB69084:4) (UniProt P19235)
Test: immunofluorescence microscopy on EpoR-coated sheep red blood cells, MAB307 at 20 ug/ml

biotinylated EpoR (Abbott CHO cell derived ref.#RB69084:4), sequence (P19235 25-250 limits assumed): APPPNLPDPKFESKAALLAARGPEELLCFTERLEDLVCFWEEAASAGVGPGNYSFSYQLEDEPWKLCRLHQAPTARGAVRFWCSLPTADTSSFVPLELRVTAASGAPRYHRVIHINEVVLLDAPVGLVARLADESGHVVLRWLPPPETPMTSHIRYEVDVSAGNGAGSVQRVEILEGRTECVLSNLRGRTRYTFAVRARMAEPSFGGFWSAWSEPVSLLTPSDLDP

immunofluorescence score (arbitrary scale of 0-4): 4 of 4
Substance: murine anti-EpoR antibody (R&D Systems Cat. #MAB307)
